Laboratory results: patent US20110143428A1 (Genentech, published 2011)

T1: VEGF-C C137S
T1 construct: also called hVEGF-C C137S; human VEGF-C C137S
T1 VEGF-C: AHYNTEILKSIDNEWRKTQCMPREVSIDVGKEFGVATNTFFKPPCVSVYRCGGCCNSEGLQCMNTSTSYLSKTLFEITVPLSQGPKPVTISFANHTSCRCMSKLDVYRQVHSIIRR

T2: hVEGF-C (human, UniProt P49767)
T2 construct: unlabelled; also called human VEGF-C
T2 sequence (VEGF-C, looked up): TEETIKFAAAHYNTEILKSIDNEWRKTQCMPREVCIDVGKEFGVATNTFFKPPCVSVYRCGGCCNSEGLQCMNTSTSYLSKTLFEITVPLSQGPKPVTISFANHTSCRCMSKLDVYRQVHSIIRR


Target: T1, VEGF-C C137S
Test: phage competition ELISA as in paragraph 556 with human VEGF-C C137S as antigen: phage-displayed clone, soluble antigen varied, anti-M13-HRP, OD450

| IC50 [nM] | Binder |
| --- | --- |
| 32.8 | VC1.12.6 (antibody, V domains shown, also called clone VC1.12.6) VH: EVQLVESGGGLVQPGGSLRLSCAASGFTFSDSDIHWVRQAPGKGLEWVAWISPYVGFTDYADSVKGRFTISADTSKNTAYLQMNSLRAEDTAVYYCARLFDVIFDYWGQGTLVTVSS VL: DIQMTQSPSSLSASVGDRVTITCRASQDVSTAVAWYQQKPGKAPKLLIYSASFLYSGVPSRFSGSGSGTDFTLTISSLQPEDFATYYCQQSYNTPPTFGQGTKVEIK |
| 16.8 | VC1.12.10 (antibody, V domains shown, also called clone VC1.12.10) VH: EVQLVESGGGLVQPGGSLRLSCAASGFTFSDSDIHWVRQAPGKGLEWVAWISPYVGFTDYADSVKGRFTISADTSKNTAYLQMNSLRAEDTAVYYCARLFDVIFDYWGQGTLVTVSS VL: DIQMTQSPSSLSASVGDRVTITCRASQDVSTAVAWYQQKPGKAPKLLIYSASFLYSGVPSRFSGSGSGTDFTLTISSLQPEDFATYYCQQSYYSPLTFGQGTKVEIK |
| 7.7 | VC1.12.4 (antibody, V domains shown, also called clone VC1.12.4) VH: EVQLVESGGGLVQPGGSLRLSCAASGFTFSDSDIHWVRQAPGKGLEWVAWISPYVGFTDYADSVKGRFTISADTSKNTAYLQMNSLRAEDTAVYYCARLFDVIFDYWGQGTLVTVSS VL: DIQMTQSPSSLSASVGDRVTITCRASQDVSTAVAWYQQKPGKAPKLLIYSASFLYSGVPSRFSGSGSGTDFTLTISSLQPEDFATYYCQQSYTSPTTFGQGTKVEIK |
| 28.1 | VC1.12.5 (antibody, V domains shown, also called clone VC1.12.5) VH: EVQLVESGGGLVQPGGSLRLSCAASGFTFSDSDIHWVRQAPGKGLEWVAWISPYVGFTDYADSVKGRFTISADTSKNTAYLQMNSLRAEDTAVYYCARLFDVIFDYWGQGTLVTVSS VL: DIQMTQSPSSLSASVGDRVTITCRASQDVSTAVAWYQQKPGKAPKLLIYSASFLYSGVPSRFSGSGSGTDFTLTISSLQPEDFATYYCQQSYTTPTTFGQGTKVEIK |
| 25.9 | VC1.12.2 (antibody, V domains shown, also called clone VC1.12.2) VH: EVQLVESGGGLVQPGGSLRLSCAASGFTFSDSDIHWVRQAPGKGLEWVAWISPYVGFTDYADSVKGRFTISADTSKNTAYLQMNSLRAEDTAVYYCARLFDVIFDYWGQGTLVTVSS VL: DIQMTQSPSSLSASVGDRVTITCRASQDVSTAVAWYQQKPGKAPKLLIYSASFLYSGVPSRFSGSGSGTDFTLTISSLQPEDFATYYCQQSYWTPLTFGQGTKVEIK |
| 4.8 | VC1.12.9 (antibody, V domains shown, also called clone VC1.12.9) VH: EVQLVESGGGLVQPGGSLRLSCAASGFTFSDSDIHWVRQAPGKGLEWVAWISPYVGFTDYADSVKGRFTISADTSKNTAYLQMNSLRAEDTAVYYCARLFDVIFDYWGQGTLVTVSS VL: DIQMTQSPSSLSASVGDRVTITCRASQDVSTAVAWYQQKPGKAPKLLIYSASFLYSGVPSRFSGSGSGTDFTLTISSLQPEDFATYYCQQSYTIPPTFGQGTKVEIK |
| 23 | VC1.12.3 (antibody, V domains shown, also called clone VC1.12.3) VH: EVQLVESGGGLVQPGGSLRLSCAASGFTFSDSDIHWVRQAPGKGLEWVAWISPYVGFTDYADSVKGRFTISADTSKNTAYLQMNSLRAEDTAVYYCARLFDVIFDYWGQGTLVTVSS VL: DIQMTQSPSSLSASVGDRVTITCRASQDVSTAVAWYQQKPGKAPKLLIYSASFLYSGVPSRFSGSGSGTDFTLTISSLQPEDFATYYCQQTYAIPPTFGQGTKVEIK |
| 7.29 | VC1.12.1 (antibody, V domains shown, also called clone VC1.12.1) VH: EVQLVESGGGLVQPGGSLRLSCAASGFTFSDSDIHWVRQAPGKGLEWVAWISPYVGFTDYADSVKGRFTISADTSKNTAYLQMNSLRAEDTAVYYCARLFDVIFDYWGQGTLVTVSS VL: DIQMTQSPSSLSASVGDRVTITCRASQDVSTAVAWYQQKPGKAPKLLIYSASFLYSGVPSRFSGSGSGTDFTLTISSLQPEDFATYYCQQSYNIPPTFGQGTKVEIK |
| 13.7 | VC1.12.8 (antibody, V domains shown, also called clone VC1.12.8) VH: EVQLVESGGGLVQPGGSLRLSCAASGFTFSDSDIHWVRQAPGKGLEWVAWISPYVGFTDYADSVKGRFTISADTSKNTAYLQMNSLRAEDTAVYYCARLFDVIFDYWGQGTLVTVSS VL: DIQMTQSPSSLSASVGDRVTITCRASQDVSTAVAWYQQKPGKAPKLLIYSASFLYSGVPSRFSGSGSGTDFTLTISSLQPEDFATYYCQQSYITPPTFGQGTKVEIK |
| 32.4 | VC1.12 (antibody, V domains shown, also called clone VC1.12) VH: EVQLVESGGGLVQPGGSLRLSCAASGFTFSDSDIHWVRQAPGKGLEWVAWISPYVGFTDYADSVKGRFTISADTSKNTAYLQMNSLRAEDTAVYYCARLFDVIFDYWGQGTLVTVSS VL: DIQMTQSPSSLSASVGDRVTITCRASQDVSTAVAWYQQKPGKAPKLLIYSASFLYSGVPSRFSGSGSGTDFTLTISSLQPEDFATYYCQQSYTTPPTFGQGTKVEIKR |

These binders were tested against T2, hVEGF-C (assay: phage competition ELISA: phage-displayed clone incubated with increasing soluble hVEGF-C, unbound phage captured on hVEGF-C coated plate, anti-M13-HRP, OD450).

| IC50 [nM] | Binder |
| --- | --- |
| 2.64 | VC4.2 (antibody, V domains shown, also called clone VC4.2) VH: EVQLVESGGGLVQPGGSLRLSCAASGFTFTDNWIHWVRQAPGKGLEWVGVISPYSGATYYADSVKGRFTISADTSKNTAYLQMNSLRAEDTAVYYCARDADYAYAWWAFDYWGQGTLVTVSS VL: DIQMTQSPSSLSASVGDRVTITCRASQDVSTAVAWYQQKPGKAPKLLIYSASFLYSGVPSRFSGSGSGTDFTLTISSLQPEDFATYYCQQSYTTPPTFGQGTKVEIK |

Target: T2, hVEGF-C
Test: as above
Remark: another data set of the same source

| IC50 [nM] | Binder |
| --- | --- |
| 40.7 | VC1.4 (antibody, V domains shown, also called clone VC1.4) VH: EVQLVESGGGLVQPGGSLRLSCAASGFTFSDSDIHWVRQAPGKGLEWVAWISPYSGYTDYADSVKGRFTISADTSKNTAYLQMNSLRAEDTAVYYCVRLFGVIFDYWGQGTLVTVSS VL: DIQMTQSPSSLSASVGDRVTITCRASQDVSTAVAWYQQKPGKAPKLLIYSASFLYSGVPSRFSGSGSGTDFTLTISSLQPEDFATYYCQQSYTTPPTFGQGTKVEIK |
| 22.1 | VC1.3 (antibody, V domains shown, also called clone VC1.3) VH: EVQLVESGGGLVQPGGSLRLSCAASGFTFSDSDIHWVRQAPGKGLEWVAWISPYSGYTDYADSVKGRFTISADTSKNTAYLQMNSLRAEDTAVYYCVRLFEVIFDYWGQGTLVTVSS VL: DIQMTQSPSSLSASVGDRVTITCRASQDVSTAVAWYQQKPGKAPKLLIYSASFLYSGVPSRFSGSGSGTDFTLTISSLQPEDFATYYCQQSYTTPPTFGQGTKVEIK |
| 27.1 | VC1.2 (antibody, V domains shown, also called clone VC1.2) VH: EVQLVESGGGLVQPGGSLRLSCAASGFTFSDSDIHWVRQAPGKGLEWVAWISPYSGYTDYADSVKGRFTISADTSKNTAYLQMNSLRAEDTAVYYCARLFEIIFDYWGQGTLVTVSS VL: DIQMTQSPSSLSASVGDRVTITCRASQDVSTAVAWYQQKPGKAPKLLIYSASFLYSGVPSRFSGSGSGTDFTLTISSLQPEDFATYYCQQSYTTPPTFGQGTKVEIK |
| 20 | VC1.7 (antibody, V domains shown, also called clone VC1.7) VH: EVQLVESGGGLVQPGGSLRLSCAASGFTFSDSDIHWVRQAPGKGLEWVAWISPYSGYTDYADSVKGRFTISADTSKNTAYLQMNSLRAEDTAVYYCARLFDIIFDYWGQGTLVTVSS VL: DIQMTQSPSSLSASVGDRVTITCRASQDVSTAVAWYQQKPGKAPKLLIYSASFLYSGVPSRFSGSGSGTDFTLTISSLQPEDFATYYCQQSYTTPPTFGQGTKVEIK |
| 17 | VC1.10 (antibody, V domains shown, also called clone VC1.10) VH: EVQLVESGGGLVQPGGSLRLSCAASGFTFSDSDIHWVRQAPGKGLEWVAWISPYSGYTDYADSVKGRFTISADTSKNTAYLQMNSLRAEDTAVYYCVRLFGIIFDYWGQGTLVTVSS VL: DIQMTQSPSSLSASVGDRVTITCRASQDVSTAVAWYQQKPGKAPKLLIYSASFLYSGVPSRFSGSGSGTDFTLTISSLQPEDFATYYCQQSYTTPPTFGQGTKVEIK |
| 25.3 | VC1.11 (antibody, V domains shown, also called clone VC1.11) VH: EVQLVESGGGLVQPGGSLRLSCAASGFTFSDSDIHWVRQAPGKGLEWVAWISPYSGYTDYADSVKGRFTISADTSKNTAYLQMNSLRAEDTAVYYCVRLYDVIFDYWGQGTLVTVSS VL: DIQMTQSPSSLSASVGDRVTITCRASQDVSTAVAWYQQKPGKAPKLLIYSASFLYSGVPSRFSGSGSGTDFTLTISSLQPEDFATYYCQQSYTTPPTFGQGTKVEIK |
| 22.5 | VC1.8 (antibody, V domains shown, also called clone VC1.8) VH: EVQLVESGGGLVQPGGSLRLSCAASGFTFSDSDIHWVRQAPGKGLEWVAWISPYSGYTDYADSVKGRFTISADTSKNTAYLQMNSLRAEDTAVYYCTRLFTIIFDYWGQGTLVTVSS VL: DIQMTQSPSSLSASVGDRVTITCRASQDVSTAVAWYQQKPGKAPKLLIYSASFLYSGVPSRFSGSGSGTDFTLTISSLQPEDFATYYCQQSYTTPPTFGQGTKVEIK |
| 28 | VC1.5 (antibody, V domains shown, also called clone VC1.5) VH: EVQLVESGGGLVQPGGSLRLSCAASGFTFSDSDIHWVRQAPGKGLEWVAWISPYSGYTDYADSVKGRFTISADTSKNTAYLQMNSLRAEDTAVYYCARLWEVIFDYWGQGTLVTVSS VL: DIQMTQSPSSLSASVGDRVTITCRASQDVSTAVAWYQQKPGKAPKLLIYSASFLYSGVPSRFSGSGSGTDFTLTISSLQPEDFATYYCQQSYTTPPTFGQGTKVEIK |
| 15.4 | VC1.6 (antibody, V domains shown, also called clone VC1.6) VH: EVQLVESGGGLVQPGGSLRLSCAASGFTFSDSDIHWVRQAPGKGLEWVAWISPYSGYTDYADSVKGRFTISADTSKNTAYLQMNSLRAEDTAVYYCVRLFDVIFDYWGQGTLVTVSS VL: DIQMTQSPSSLSASVGDRVTITCRASQDVSTAVAWYQQKPGKAPKLLIYSASFLYSGVPSRFSGSGSGTDFTLTISSLQPEDFATYYCQQSYTTPPTFGQGTKVEIK |
| 5.1 | VC1.12 (antibody, V domains shown, also called clone VC1.12) VH: EVQLVESGGGLVQPGGSLRLSCAASGFTFSDSDIHWVRQAPGKGLEWVAWISPYVGFTDYADSVKGRFTISADTSKNTAYLQMNSLRAEDTAVYYCARLFDVIFDYWGQGTLVTVSS VL: DIQMTQSPSSLSASVGDRVTITCRASQDVSTAVAWYQQKPGKAPKLLIYSASFLYSGVPSRFSGSGSGTDFTLTISSLQPEDFATYYCQQSYTTPPTFGQGTKVEIKR |
